Patent US20110135634A1, “METHODS OF INHIBITING INFECTION BY DIVERSE SUBTYPES OF DRUG-RESISTANT HIV-1” (priority 2007, published 2011)
Several values for one entry are separate records, joined by “and”; a condition that tells them apart may be missing. Equal values may be shown once. Read-outs that look alike come from different tables or passages of the source.

Assays:
[1] = Phase 1b clinical trial: safety, PK, immunogenicity, tropism, susceptibility; type: in vivo, human; settings: HIV-infected subjects
Source text: (§1) All patients were screened prior to the study for the presence of virus that utilizes only CCR5 as the entry coreceptor, i.e., CCR5-tropic virus.

[2] = human, in vivo
Protocol: (§2) Individuals were treated in sequential, dose-rising cohorts of 5 subjects (4 active and 1 placebo) each and evaluated for up to 120 days post-treatment. […] Safety assessments consisted of monitoring the following: vital signs (blood pressure, pulse, temperature, etc; hematology (hemoglobin, hematocrit, leukocytes, platelets, etc.); serum chemistries (AST/ALT, alkaline phosphatase, BUN, creatinine, etc.); urinalysis (pH, specific gravity, protein, glucose, leukocytes, etc.); and ECGs (12-lead).

[3] = system: HIV-1 (CCR5-tropic virus); type: in vivo; settings: for Mean log10 HIV RNA change: Day 10 post-treatment
Source text: The efficacy data collected during the study were changes in viral load and CD4 counts over time. The safety data collected during the study were serious adverse events (SAEs)/adverse events (AEs) and changes in laboratory parameters (hematology, chemistry), physical exam, viral tropism and ECGs over time.
as §1
The primary efficacy endpoint was the reduction in plasma HIV RNA level as measured by the Roche Amplicor™ Assay. The primary efficacy endpoint is the maximum change from baseline in viral load, defined as HIV-1 copies/ml, as measured by the Roche Amplicor™ Assay.

[4] = system: reporter viruses pseudotyped with HIV-1SF162 envelope (U87-CD4-CCR5 cells); experiment: HIV-1 pseudovirus assay, SF162 envelope; type: cell-based
Source text: A self-inactivating (SIN) vector was derived from the pNL4-3ΔEnv-luciferase vector (Dragic et al. 1996) by deleting 507 basepairs in the U3 region of the 3′ long terminal repeat (LTR) so as to remove the TATA box and transcription factor binding sites. The human cytomegalovirus promoter was inserted upstream of the luciferase (luc) gene to enable expression of luciferase following integration.
Reporter viruses pseudotyped with HIV-1JR-FL or HIV-1SF162 envelopes were generated by cotransfection of 293T cells with the SIN vector and the appropriate pcDNA env-expressing vector as previously described (Dragic et al. 1996). […] Cultures were incubated for 72 h at 37° C. in DMEM containing 10% fetal bovine serum, […] puromycin, 0.3 mg/mL geneticin, antibiotics, and 0.5% DMSO. Luciferase activity (relative light units or RLU) was measured using. BrightGlo reagent (Promega, Madison, Wis.) according to the manufacturer's instructions.
Experimental design and data analysis were based on the combination index (CI) method (Chou et al. 1991; Chou et al. 1984). […] The mutually exclusive CI formula was used for combinations of CCR5 inhibitors, while the mutually non-exclusive formula was utilized for combinations of inhibitors to distinct targets (Chou et al. 1991). Each test was conducted 4-12 times. Synergy, additivity and antagonism are indicated by CI<1, CI=1 and CI>1, respectively.

[5] = biological target: T1, CCR5 on CEM.NKR-CCR5 cells (Homo sapiens, UniProt P51681); experiment: Competition binding: inhibition of 3H-UK-427,857 binding; settings: read-out: EC50, inhibition of 3H-UK-427,857 binding; 2 nM 3H-UK-427,857, CEM.NKR-CCR5 cells
T1 construct: host or cells: CEM.NKR-CCR5 (transduced human T cell leukemia line)
T1 sequence (P51681 whole entry): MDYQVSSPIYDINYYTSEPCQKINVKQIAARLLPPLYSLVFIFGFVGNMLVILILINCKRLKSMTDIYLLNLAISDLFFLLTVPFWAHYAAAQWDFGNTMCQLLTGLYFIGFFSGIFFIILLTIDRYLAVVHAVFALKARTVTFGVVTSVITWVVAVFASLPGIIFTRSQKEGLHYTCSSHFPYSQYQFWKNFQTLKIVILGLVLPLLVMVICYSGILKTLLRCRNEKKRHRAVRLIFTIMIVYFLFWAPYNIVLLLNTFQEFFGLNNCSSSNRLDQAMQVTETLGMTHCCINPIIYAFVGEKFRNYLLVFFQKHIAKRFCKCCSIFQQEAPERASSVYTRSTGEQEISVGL
Source text: The cells were washed in PBSA and lysed with 0.5N HCl prior to scintillation counting using a Wallac 1410 instrument.

[6] = system: primary R5 HIV-1 isolates; experiment: Whole virus replication (neutralization) assay; type: cell-based; settings: a variety of primary R5 strains (FIG. 1)
Protocol: Humanized PRO140 is potently antiviral. […] The data reflect the median values from 8 or more independent assays. The genetic subtypes of the viruses are indicated in parentheses.
Stimulated PBMCs are seeded into wells of 96-well flat bottom plates at a density of 1.4×10^5 cells/well. Virus is diluted to 2,000 TCID50/ml and mixed with serial 0.5 log10 dilutions of compound for 1 h at 37° C. prior to addition to the cell plates. The final amount of virus added per well is 100 TCID50. The final DMSO concentration in the assay is always 0.5% whenever small molecule inhibitors are being tested. Plates are incubated at 37° C. for 5 days, at which time an aliquot of supernatant is removed for p24 antigen ELISA.
The percent inhibition is derived as follows [1−(p24 levels in the presence of drug/p24 levels in the absence of drug)]×100.

[7] = system: CCR5 chemokine signaling (L1.2-CCR5 cells); experiment: RANTES-induced calcium mobilization in L1.2-CCR5 cells versus HIV-1JR-FL replication in PBMC (FIG. 4); type: cell-based, human; settings: PBMC cultures, similar results for MIP-1α and MIP-1β
Source text: Similar results were obtained for MIP-1α and MIP-1β.

[8] = human, in vivo; remark: listed apart in the source
Protocol: as §2
Sera were diluted as appropriate and combined with L1.2-CCR5 cells, which are mouse pre-B lymphoma cells engineered to stably express human CCR5. […] Following incubation with test samples, cells were washed and combined with a FITC-labeled sheep antibody against human IgG4 (The Binding Site Limited, Cat. #AF009). Cells were washed again and analyzed by flow cytometry.
Serum was collected post-treatment, cryopreserved, and analyzed for PRO 140 levels. Peak serum concentrations ranged to […] at 0.1 mg/kg and […] at 0.5 mg/kg.

[9] = system: primary R5 HIV-1 isolates JR-FL and Case C 1/85 (CC1/85); experiment: In vitro resistance selection and susceptibility testing on PBMC; type: cell-based; settings: p24 ELISA
Protocol: For susceptibility testing, viruses were cultured in vitro on stimulated PBMC. In the presence and absence of serially diluted drug, and the extent of viral replication was determined by p24 ELISA.

[10] = system: HIV-1; settings: Olson et al., 1999; Trkola et al., 2001; cited from earlier work
[11] = biological target: T1, CCR5 on CEM.NKR-CCR5 cells; experiment: Competition binding: inhibition of PRO 140-PE binding; settings: based on percent cells gated; 5 nM PRO 140-PE
Protocol: Azide was added to block CCR5 internalization during the assay.

[12] = SF162, labelled 1st inhibitor with 2nd inhibitor PRO 140 (equimolar; 1:10 PRO 140 to nevirapine or zidovudine)

B1: PRO 140: humanized IgG4,κ anti-CCR5 mAb being developed for HIV-1 therapy (antibody, chains of the INN, looked up, V domains shown)
VH: EVQLVESGGGLVKPGGSLRLSCAASGYTFSNYWIGWVRQAPGKGLEWIGDIYPGGNYIRNNEKFKDKTTLSADTSKNTAYLQMNSLKTEDTAVYYCGSSFGSNYVFAWFTYWGQGTLVTVSS
VL: DIVMTQSPLSLPVTPGEPASISCRSSQRLLSSYGHTYLHWYLQKPGQSPQLLIYEVSNRFSGVPDRFSGSGSGTDFTLKISRVEAEDVGVYYCSQSTHVPLTFGQGTKVEIK
**Q.** Which “change in plasma RANTES (CCL5) chemokine levels” value [1] does the source give for B1 here?
**A.** No change

**Q.** And the dose-limiting toxicity ([1]; 0.5-5.0 mg/kg)?
**A.** No dose-limiting toxicity

**Q.** And the “treatment related SAEs” value ([1]; 0.5-5.0 mg/kg)?
**A.** No treatment related SAEs

**Q.** What about the tolerability ([1]; all study groups) of the same molecule?
**A.** well-tolerated

**Q.** And the dose-limiting toxicity [2]?
**A.** no dose-limiting toxicity

**Q.** And the “individual reductions of viral load” value ([3]; 2.0 mg/kg and 5.0 mg/kg dose levels)?
**A.** up to 2.5 log10 and ≤ 99.7%

**Q.** What about the AUC viral load ([3]; 5 mg/kg) of the same molecule?
**A.** significantly decreased

**Q.** What about the “Maximum decrease of viral load at any time” value ([3]; 5 mg/kg) of the same molecule?
**A.** −1.8 log

**Q.** What about the “Patients with <400 copies/mL (anytime)” value ([3]; 5 mg/kg) of the same molecule?
**A.** 4/10

**Q.** And the “Patients with >1 log decrease (anytime)” value ([3]; 5 mg/kg)?
**A.** 10/10

**Q.** What about the “time of return of viral load to baseline” value ([3]; 5.0 mg/kg cohort) of the same molecule?
**A.** approximately 30 days

**Q.** What about the “time to suppression of mean viral load by 1.0 log10 (90%)” value ([3]; 5.0 mg/kg cohort) of the same molecule?
**A.** within four days

**Q.** And the “time viral load persisted at or below the 1.0 log10 level of reduction” value ([3]; 5.0 mg/kg cohort)?
**A.** two to three weeks

**Q.** And the “mean increase in CD4+ lymphocytes” value ([3]; 5 mg/kg, day 8)?
**A.** 129 cells/μL

**Q.** And the Viral load decrease ([3]; 5 mg/kg, day 22)?
**A.** −0.73

**Q.** What about the “Mean log10 HIV RNA change” value ([3]; 0.5 mg/kg) of the same molecule?
**A.** −0.37 log10

**Q.** What about the “Mean log10 HIV RNA change” value ([3]; 2.0 mg/kg) of the same molecule?
**A.** −1.04 log10

**Q.** What about the “Mean log10 HIV RNA change” value ([3]; 5.0 mg/kg) of the same molecule?
**A.** −1.70 log10

**Q.** And the “response rate (percentage of patients with a ≧1 log10 decrease in HIV RNA at any time)” value ([3]; highest dose cohort)?
**A.** 100%

**Q.** And the IC50 ([4]; HIV-1 envelope SF162, 1st inhibitor alone, read-out: IC50)?
**A.** 1.3 nM

**Q.** And the IC90 ([4]; HIV-1 envelope SF162, 1st inhibitor alone, read-out: IC90)?
**A.** 20 nM

**Q.** What about the CI50 [4, 12] of the same molecule?
**A.** 1.0 ± 0.27

**Q.** What about the CI90 [4, 12] of the same molecule?
**A.** 0.86 ± 0.33

**Q.** What about the EC50 [5] of the same molecule?
**A.** 14 nM

**Q.** What about the IC90 [6] of the same molecule?
**A.** 3 to 4 µg/mL

**Q.** What about the “effect on RANTES-induced calcium mobilization and on HIV-1JR-FL replication” value [7] of the same molecule?
**A.** blocks HIV-1 but not chemokine signaling

**Q.** And the terminal serum half-life [8]?
**A.** 10 to 12 days

**Q.** What about the “inhibition of SCH-D escape mutants” value [9] of the same molecule?
**A.** efficiently inhibited

**Q.** And the IC90 [10]?
**A.** about 4 μg/ml

**Q.** And the EC90 [11]?
**A.** 17 nM
